Our source for the ratio to parent (Folds of Control) values is paper PMC9672126.

B1: Flag-BNIP3 wild-type (BCL2/adenovirus e1B 19 kDa protein interacting protein 3) [rat] / GFP-LC3 (microtubule-associated protein 1 light chain 3; plasmid pEGFP-C1-LC3B) [not stated] (parent)
chain 1: MSQSGEENLQGSWVELHFSNGNGSSVPASVSIYNGDMEKILLDAQHESGRSSSKSSHCDSPPRSQTPQDTNRAEIDTHSFGEKNSTLSEEDYIERRREVESILKKNSDWIWDWSSRPENVPPKEFLFKHPKRTATLSMRNTSVMKKGGIFSADFLKVFLPSLLLSHLLAIGLGIYIGRRLTTSTSTF
chain 2: not shown

Variants of B1 are the subject of this test. Put plainly: co-IP (anti-Flag immunoprecipitation, western blot, quantified). The following applies: with GFP-LC3 (microtubule-associated protein 1 light chain 3; plasmid pEGFP-C1-LC3B); HeLa cells, 48 h after transfection; n = 3; means ± SEM; read off a plot. For orientation: Immunoblotting shows a protein as a band on a membrane.
Consider chain 1 S60A T66A, for which the ratio to parent (Folds of Control) stood at 0.13.

For chain 1 S60D, the ratio to parent (Folds of Control) turned out to be 0.85.

As for chain 1 S60E, the ratio to parent (Folds of Control) is 0.85.

Regarding chain 1 S60A, the ratio to parent (Folds of Control) came out at 0.33.
